Assay results: patent US20070212347A1 (published 2007)

Columns and labels:
[1] = biological target: GST-p53 construct (Res. 73-390) [GST: P08515]; assay: in vitro binding, ^35S-T-antigen probe on bead-immobilized GST-p53
[2] = biological target: T1, ^35S-PKD2 probe (C-terminal region of polycystin-2, Res. 657-968) (UniProt Q13563 657-968, ^35S-labeled (in vitro translation)); assay: in vitro binding, autoradiogram (FIG. 12C)
T1 construct: range 657-968; In vitro translated in the same manner as the Ig probes; also called polycystin-2 probe; PKD2 gene product
T1 sequence (looked up): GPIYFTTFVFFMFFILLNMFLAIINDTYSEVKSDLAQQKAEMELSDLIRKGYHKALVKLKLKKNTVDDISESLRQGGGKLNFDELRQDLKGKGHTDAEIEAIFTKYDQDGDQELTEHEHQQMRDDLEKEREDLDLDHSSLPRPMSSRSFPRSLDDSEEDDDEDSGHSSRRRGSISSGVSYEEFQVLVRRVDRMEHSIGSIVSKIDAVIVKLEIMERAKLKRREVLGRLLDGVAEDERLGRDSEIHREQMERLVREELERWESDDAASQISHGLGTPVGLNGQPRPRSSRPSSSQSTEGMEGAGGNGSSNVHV

[3] = biological target: Ig^b and Ig^c, as partners of Ig^b in the 'Ig^b-Ig^b, Ig^b-Ig^c combinations'; assay: in vitro binding, ^35S in vitro translated probe on bead-immobilized GST fusion, PhosphorImager
[4] = biological target: T2, GST-Ig^b fusion protein (polycystin-1 Ig-like domains VI-X, amino acids 1205-1625, fused to GST) (human, UniProt P98161 1205-1625); assay: in vitro binding, ^35S in vitro translated probe on bead-immobilized GST fusion
T2 construct: used soluble in the MDCK adhesion assays; not shown: glutathione S-transferase carrier encoded by the pGEX vector (Pharmacia), N-terminal fusion partner; linker residues not
T2 sequence: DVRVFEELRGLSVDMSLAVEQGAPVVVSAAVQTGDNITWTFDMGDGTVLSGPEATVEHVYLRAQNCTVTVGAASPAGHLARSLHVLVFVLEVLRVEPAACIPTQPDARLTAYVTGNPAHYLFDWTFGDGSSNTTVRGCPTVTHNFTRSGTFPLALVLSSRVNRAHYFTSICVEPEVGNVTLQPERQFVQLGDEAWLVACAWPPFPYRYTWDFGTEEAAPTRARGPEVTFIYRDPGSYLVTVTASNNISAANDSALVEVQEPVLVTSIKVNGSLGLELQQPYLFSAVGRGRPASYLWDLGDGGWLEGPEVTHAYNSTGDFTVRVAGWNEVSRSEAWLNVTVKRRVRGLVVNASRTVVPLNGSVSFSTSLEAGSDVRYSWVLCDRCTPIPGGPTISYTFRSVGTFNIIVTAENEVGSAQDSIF

Sequence of GST-p53 construct (Res. 73-390) [GST: P08515] (P08515 whole entry): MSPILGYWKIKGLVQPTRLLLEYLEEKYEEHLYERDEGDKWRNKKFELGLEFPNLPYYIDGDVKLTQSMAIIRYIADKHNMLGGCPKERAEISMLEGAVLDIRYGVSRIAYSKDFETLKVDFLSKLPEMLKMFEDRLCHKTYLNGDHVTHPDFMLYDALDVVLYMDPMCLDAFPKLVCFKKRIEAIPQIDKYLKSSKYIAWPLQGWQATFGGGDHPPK

Molecule: ^35S-T-antigen probe (SV40 large T-antigen, res. 87-708) (from UniProt P03070 87-708)
- bound fraction (percentage of input probe) [1]: 45%

B1: MBP-PKD1 fusion protein (C-terminal region of polycystin-1, Res. 4077-4302, fused to MBP) (other, not shown: large carriers)
chain: ESWHLSPLLCVGLWALRLWGALRLGAVILRWRYHALRGELYRPAWEPQDYEMVELFLRRLRLWMGLSKVKEFRHKVRFEGMEPLPSRSSRGSKVSPDVPPPSAGSDASHPSTSSSQLDGLSVSLGRLGTRCEPEPSRLQAVFEALLTQFDRLNQATEDVYQLEQQLHSLQGRRSSRAPAGSSRGPSPGLRPALPSRLARASRGVDLATGPSRTPLRAKNKVHPSST
notes: Immobilized on amylose resin; also called polycystin-1 c-terminal fusion protein
- binding result [2]: binds

B2: ^35S-Ig^b in vitro translated probe (polycystin-1 Ig-like domains VI-X) (other)
chain: DVRVFEELRGLSVDMSLAVEQGAPVVVSAAVQTGDNITWTFDMGDGTVLSGPEATVEHVYLRAQNCTVTVGAASPAGHLARSLHVLVFVLEVLRVEPAACIPTQPDARLTAYVTGNPAHYLFDWTFGDGSSNTTVRGCPTVTHNFTRSGTFPLALVLSSRVNRAHYFTSICVEPEVGNVTLQPERQFVQLGDEAWLVACAWPPFPYRYTWDFGTEEAAPTRARGPEVTFIYRDPGSYLVTVTASNNISAANDSALVEVQEPVLVTSIKVNGSLGLELQQPYLFSAVGRGRPASYLWDLGDGGWLEGPEVTHAYNSTGDFTVRVAGWNEVSRSEAWLNVTVKRRVRGLVVNASRTVVPLNGSVSFSTSLEAGSDVRYSWVLCDRCTPIPGGPTISYTFRSVGTFNIIVTAENEVGSAQDSIF
modifications: ^35S-labeled (in vitro translation)
notes: Translated in reticulocyte lysate without the GST portion, from an AUG in a Kozak context placed upstream of the insert
- bound fraction (percentage of input probe) [3]: 25 to 45%
- binding result [4]: binds
